Test results from the DeepSol protein solubility set.

Test: soluble on expression in E. coli; label from the status in PepcDB or PDB records

Question: With “MGSDKIHHHHHHALGGCGLVPKQPITQQPMTALPPMPPQAQSPGSIFNPGYAGRPLFEDQRPRNVGDILTIVIQENVNATKSSGANANRSGNTNFNVPTAGFLGGLFGKTNLSATGANVFSGTGGANASNTFNGTITVTVTGVLPNGNLMVSGEKQMLINQGDEFVRFSGVVNPNTISNLNAVYSTQVADAKIEYSAKGYLNEAENMGWLQRFFLNVSPW” as the sequence, how does the “soluble on expression in E. coli” value read?
Answer: not soluble

Question: For “MGIFSERLKEAMQQANITSAQLSKQTGIGRSSISQWLSNKYVAKHDKVTALAAVLNVSPDWLLGTTDVATAVSPEAVPIPVSVTPTPAVDPELITLWEQLDTKQRSKLIKKARKLLTKSAEQPNTKRKKNKKKKKGKKRK”, which “soluble on expression in E. coli” value is on record?
Answer: not soluble

Question: Which “soluble on expression in E. coli” value does the source give for “MSLKEFYIGDQFYLDGEPFKILSGAIHYFRVHPDDWYHSLYNLKALGFNTVETYVPWNMHEPRKGEFCYEGILDIERFLKLAQELGLYAIVRPSPYICAEWEWGGLPAWLMKEELRVRSSDSVYLQHLDEYYVSLIPKLAKLQLAQGGNVLMFQVENEYGSYGEEKAYLRAVAGLMRKHGLTAPLFTSDGSWRATLRAGTLIEDDVFVTGNFGSKARENFANMTAFFNEHQKNWPLMCMEFWDGWFNRWGDEIIRREPEEMVDSVMECIELGSLNLYMFHGGTNFGFMNGCSARGQIDLPQVTSYDYDAILDEAGNPTKKFYILQQRLKEVYPELEYAEPLVKEAKAFSDVSLHDKVSLFATLENVSDCVKGFYPKNMEELDQSTGYILYRTELERDKTEAERFRVVDARDRIQIYADGKFVATQYQTEIGDDVELDFKDDKLTLDILVENMGRVNYGHKLTAPTQSKGIGRGAMADLHFIGHWETYPLHLESVEDLDFSKGWEEGQAAFYRYQFELDELADTYLDMTGFGKGVVFVNNVNIGRFWEKGPILYLYIPKGYLKKGANEIVVFETEGKYREKIHFSQRPVIKDLEGHHHHHH” here?
Answer: soluble

Question: With “MSLSVSDELQLFAQEIQRFLSPNTLRNLARDVGFVQRTSKYQAKDLVALCVWMNQNIATTSLTQLSSCLEASTEVLISPEGLNQRFNKAAVQFLQHILAELLSRKLTSSIPISSPYTSVFKRIRILDSTAFQLPDVFSSVYPGAGGCSHTAGIKIQLEYDLLSGQFLHIHTGPGKQHDRTYGSLCAPTVTANDLCIRDLGYFHLKDLQYIQDKEAYYISRIKSNTRMYQKNPNPDYFQDGRIKKGTEYIQIDIETLMNSLQPGQTCEVADAYVGMNDKVPARVIVHRLTKQQQQKRLQDQAVREKKKGMKYSPRSKRLSGINVYMTNTPTDIVPMGQVHDWYSLRWQIEILFKTWKSFFQIHHCKKIKAERLECHLYGQLIAILLCSSIMFQMRQLLLMKKKRELSEYKAIYMIKDYFLLLFQTIQKNTQELSKVLLRLFNLLQQNGRKSHRYEKKTVFDILGVVYNSMSDNQAEGHHHHHH” as the sequence, how does the “soluble on expression in E. coli” value read?
Answer: not soluble

Question: With “LRVSDGIAGKMTVLALKNTDERLRADKSVSVGFVLAALMWPELERHWKSNLQQGLKPAPALSDAINTMRETVERGWGVPQRFSATMREIWMFQPQFENRKGARPHKLFAQARFRAAYDFLLLRAETGNADRALAEWWTAFQTASTEQRSEMTKNEAAARHEKNEGQAKKRRRRRRKPKPKVVGTDWE” as the sequence, how does the “soluble on expression in E. coli” value read?
Answer: not soluble

Question: For “MNTKLPLDLFNQAKRSASQDQPALFSWVTELDELVSPVKLFKKAGTAFKGERFFWQNPEMTLTMTGFGVTKQFLAEKKKDAFLGLQEKIEKRLRTSVTNATVDATGPVYFGGFAFDPERDTEKEWQSFKDGLFYLPLFMLTNKDGKSYLTVNLSIYSDDTESKLEAVFNQWQKIIHQEVNEAEMALLTDFKEIGKDHFLETASEIIDMINHSEDVKKVVLARRMGLRFQRQVDSAIILENMLATQENSYFFLIEKGTGVFFGATPERLLAVNGDEIHSSCVAGSTERGATEEADEALGNALLKDAKNLREHSYVVQMMEETLKPFTTGLSLSSQPVLLKNRDIQHLYMNITAKKKPDVSMLEMVKALHPTPALGGLPQKMGLAIIRMKEEMDRGFYGAPIGWVDLKGSGEFAVAIRSGLIVDSQGLIYAGCGIVGDSVPKEELQETAVKFQPMLRVLGGIKK”, which “soluble on expression in E. coli” value is on record?
Answer: not soluble

Question: Which “soluble on expression in E. coli” value does the source give for “MSLDTPTHLTLMVSGTAKMIYLPATLAQRLGYFRDEGLDVELLSQPAGVDAESELLTGYAQGVVGFYDHTIDLQTKGKEVRAIVVFSHVPGEAEVVSTRLPATVQSLHDLRGRTLGVTGLGSSTSFLTRHLMAQQGLGPGEYTMLPVGAEHSFVSALRSGRIDAGMTTDPTATRLIRNKEARMLLDLRTIESTRAALGGPYPAACLYVQTEWLEAHPELATKLARAFVRTLRYLRSHRAEDIAAHMPPEFRRDRPDVYMQALIAALPTFSDDGRMPADGPATVLRVLSTSNPNARDKHIDLSRTYTNRFVDQAKEGHHHHHH” here?
Answer: soluble

Question: With “MLRNLKKTLVLDSSVFIQGIDIEGYTTPSVVEEIKDRESKIFLESLISAGKVKIAEPSKESIDRIIQVAKETGEVNELSKADIEVLALAYELKGEIFSDDYNVQNIASLLGLRFRTLKRGIKKVIKWRYVCIGCGRKFSTLPPGGVCPDCGSKVKLIPRKRLEHHHHHH” as the sequence, how does the “soluble on expression in E. coli” value read?
Answer: not soluble

Question: For “MTDTASKYAVKLKTNFEDPKWVNRHKFMFNFLDINGNGKITLDEIVSKASDDICAKLGATPAQTQRHQEAVEAFFKKIGLDYGKEVEFPAFVNGWKELAKHDLKLWSQNKKSLIRNWGEAVFDIFDKDGSGSISLDEWKTYGGISGICPSDEDAEKTFKHCDLDNSGKLDVDEMTRQHLGFWYTLDPNADGLYGNFVP”, which “soluble on expression in E. coli” value is on record?
Answer: soluble

Question: Which “soluble on expression in E. coli” value does the source give for “MLGVVPGIGESIQAYKVAKAAKNLQGMKKALDKAATVATAQGYVSKTKIKIGQTELRVTAATDKQLLKAIGEGRTRQVK” here?
Answer: not soluble

Question: For “MSLSLLEVCADLCGQQTLSLFQSSPSVQQVSQTRDLQDIIGQQQGKRALEIAAAGNHNLLFLGPPGTGKTMLASRLCDLLPEMSDEEAMETASIASLTQQEINQHNWKLRPFRAPHHSSSMAALVGGGTIPRPGEISLAHNGLLFLDEMPEFERKVLDSLREPLESGEIVISRAQGKTRFPARFQLVGALNPSPTGYYEGSQARANPQSILRYLSRLSGPLLDRFDMSIEIPALPKGTLANGGDRGESTAAVRQRVWVARERMLARSGKVNALLQSREIEQYCPLLKADAEFLESALHRLGLSIRAYHRIIKVARTIADLQGEAQIARPHLAEALGYRAMDRLLKQLSAQNEGHHHHHH”, which “soluble on expression in E. coli” value is on record?
Answer: not soluble

Question: For “MGSDKIHHHHHHMLEHGGNLHVASQQYGIAREYWLDLSTGINPQGYPVPEIPASAWHRLPEADPPLERIAASYYGAQRLLVTAGSQAAIQALPRLRQPCRVTVLGPMYAEHAHAWRQQGHQVSEIDYLPSAAMLAETDVLLVCNPNNPTARLLAPSTLLEWHQVLSEHDGWLVVDEAFMDSTPEHSLAAYSHHSGLIILRSLGKFFGLAGARVGFVLAETPLLTRMADLLGPWAVTGPSSIVAQAALADHAWQQHHRAKLLAESRQLADMLRQAGLPARKGCALFQWLKLEHAERLHVQLARQGVWTRHFPALRGVRIGLPSADGWQKLAVALKELQLQDLSD”, which “soluble on expression in E. coli” value is on record?
Answer: not soluble

Question: Which “soluble on expression in E. coli” value does the source give for “MGSDKIHHHHHHMKKAIGILCYPSVGGSGVVATELGMKLADRGHDVHFITSSIPFRLTEYRPNITVHLVEVNQYSVFKYPPYDITLASKVAEVIDLFDLDIIHAHYAVPHAVCAELGRNMAKKKGVGVVTTLHGTDITVIGQDLEMQPAIRYGIESSDAVTAVSESLALETNITLNGQYAIEVIPNSIDESMYYPMRDERLKRHYGIEPDEIVVIHISNFRPVKRIDDTIAAFAIASKDRAMRLLLVGDGPEMGQTRRRAKELGIYDKIIFAGKQEHVAQLLAISDIHLLLSEKEAFGLVVLEAMAVGVPSVVSSAGGLPEVIQDGKTGFIVPTYDVKTAADRIGKLADDAALREELAEEGIRDTRRRFDSNQVVRAYELLYERVCAQYENA” here?
Answer: not soluble

Question: Which “soluble on expression in E. coli” value does the source give for “GDFSWNSSLTYTMNRNKVKRLASGATNPITGEIIDMPELRMAVLGADGYGPRVILREGGTMGDLYVDKGLRTDGNGNIWVDSQTGKVGVQDYAEPKKIGTMNPDFNMGFSNTFSYKGINLGVVLTARVGGLCVSNTQGILDYYGVSKATADARDAGGVWINNGFVDAKSYYQTIGGSTGGLGQYYTYSATNIRLSELNLSYTLPRKWFNNKVGITAGIVGKNLWMIYCKAPFDPEMTPSTTSNFYQGVDYFMQPSTRNIGFNVKFQF” here?
Answer: not soluble
